In patent US20130156779A1 (GlaxoSmithKline, published 2013):
Read-outs that look alike come from different tables or passages of the source.

B1: Murine 1D9 antibody (M5.1D9.1F5) (antibody, IgG2b, V domains shown)
VH: QVQLQQPGAELVRPGTSVKLSCKASGYTFTSYWMHWVKQRPGQGLEWIGVIDPSDGYSHYNQKFKGKATLTVDTSSSTAYMQLSSLTSEDSAVYYCAGGLAGTLDYWGQGTTLTVSS
VL: DVLMTQTPLSLPVSLGDQASISCRSSQSIVHSSGNTYLQWFLQKPGQSPKLLISKVSNRFSGVPDRFSGSGSGTDFTLRISRVEAEDLGLYYCFQGSHVPWTFGGGTKLEIK
notes: Mouse monoclonal, IgG2b; also called m1D9
B2: Humanized 1D9 POTELLIGENT™ antibody (antibody, human IgG1, kappa)
heavy: not shown
light: DIQMTQSPSSLSASVGDRVTITCRSSQSIVHSSGNTYLQWFQQKPGKAPKLLIYKVSNRFSGVPSRFSGSGSGTDFTLTISSLQPEDFAVYYCFQGSHVPWTFGQGTKLEIKRTVAAPSVFIFPPSDEQLKSGTASVVCLLNNFYPREAKVQWKVDNALQSGNSQESVTEQDSKDSTYSLSSTLTLSKADYEKHKVYACEVTHQGLSSPVTKSFNRGEC
modifications: non-fucosylated glycans on the marked N* residue
notes: Same chains as the humanized 1D9 antibody, expressed in FUT8- cells; also called humanized 1D9 H6L2 POTELLIGENT antibody
B3: Humanized 1D9 antibody (antibody, human IgG1, kappa)
heavy: not shown
light: DIQMTQSPSSLSASVGDRVTITCRSSQSIVHSSGNTYLQWFQQKPGKAPKLLIYKVSNRFSGVPSRFSGSGSGTDFTLTISSLQPEDFAVYYCFQGSHVPWTFGQGTKLEIKRTVAAPSVFIFPPSDEQLKSGTASVVCLLNNFYPREAKVQWKVDNALQSGNSQESVTEQDSKDSTYSLSSTLTLSKADYEKHKVYACEVTHQGLSSPVTKSFNRGEC
notes: Expressed in FUT8+ cells; also called HZ1D9; H6L2

Assays:
Human HER3 receptor [1] = target: T1, Human HER3 receptor (human, UniProt P21860 20-1342); experiment: cell-based or functional assay
T1 sequence (P21860 20-1342 limits assumed): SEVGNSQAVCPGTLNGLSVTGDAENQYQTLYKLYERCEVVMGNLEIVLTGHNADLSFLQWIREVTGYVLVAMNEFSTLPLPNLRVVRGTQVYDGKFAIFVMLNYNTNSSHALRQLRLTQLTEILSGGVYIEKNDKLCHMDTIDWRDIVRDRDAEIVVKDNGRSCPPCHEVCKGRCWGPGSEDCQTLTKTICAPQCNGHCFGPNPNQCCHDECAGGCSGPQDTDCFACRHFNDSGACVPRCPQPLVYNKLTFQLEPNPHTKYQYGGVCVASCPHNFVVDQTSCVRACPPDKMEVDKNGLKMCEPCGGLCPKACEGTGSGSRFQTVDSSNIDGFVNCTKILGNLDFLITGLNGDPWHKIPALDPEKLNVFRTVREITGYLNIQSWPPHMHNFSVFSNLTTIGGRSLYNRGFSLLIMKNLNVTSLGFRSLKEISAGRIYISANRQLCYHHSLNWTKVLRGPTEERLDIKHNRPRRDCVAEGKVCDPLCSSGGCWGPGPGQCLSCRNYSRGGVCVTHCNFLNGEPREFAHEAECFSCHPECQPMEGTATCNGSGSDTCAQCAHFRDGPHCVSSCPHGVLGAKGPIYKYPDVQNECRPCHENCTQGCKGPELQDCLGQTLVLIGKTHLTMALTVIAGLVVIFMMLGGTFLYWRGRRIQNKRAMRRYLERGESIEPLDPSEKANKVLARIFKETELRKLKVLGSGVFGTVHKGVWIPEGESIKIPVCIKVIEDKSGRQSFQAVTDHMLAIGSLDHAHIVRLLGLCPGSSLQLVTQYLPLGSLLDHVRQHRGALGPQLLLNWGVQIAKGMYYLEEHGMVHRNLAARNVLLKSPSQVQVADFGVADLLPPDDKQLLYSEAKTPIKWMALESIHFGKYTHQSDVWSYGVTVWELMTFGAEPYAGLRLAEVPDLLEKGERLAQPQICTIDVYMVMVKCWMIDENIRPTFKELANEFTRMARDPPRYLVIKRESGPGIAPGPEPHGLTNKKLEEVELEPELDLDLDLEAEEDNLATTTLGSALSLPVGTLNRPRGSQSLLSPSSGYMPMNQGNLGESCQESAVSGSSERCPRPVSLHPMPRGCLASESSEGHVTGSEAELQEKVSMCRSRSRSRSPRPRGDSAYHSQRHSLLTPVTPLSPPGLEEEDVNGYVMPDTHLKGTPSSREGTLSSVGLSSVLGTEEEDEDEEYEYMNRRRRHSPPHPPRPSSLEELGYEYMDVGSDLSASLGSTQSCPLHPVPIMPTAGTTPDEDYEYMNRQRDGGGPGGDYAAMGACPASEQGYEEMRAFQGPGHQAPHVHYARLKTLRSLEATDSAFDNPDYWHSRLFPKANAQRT

Human HER3 receptor [2] = target: T1, Human HER3 receptor; experiment: cell-based or functional assay; remark: listed apart in the source
Human HER3 receptor [3] = target: T1, Human HER3 receptor; experiment: cell-based or functional assay; remark: listed apart in the source
Human HER3 receptor [4] = target: T1, Human HER3 receptor; experiment: cell-based or functional assay; remark: listed apart in the source
[5] = target: T2, Full-length human HER3 extracellular domain (ECD) (human, UniProt P21860 20-643); experiment: affinity summary table, method not given
T2 construct: also called human HER3 ECD; HER-3 ECD full length
T2 sequence (P21860 20-643): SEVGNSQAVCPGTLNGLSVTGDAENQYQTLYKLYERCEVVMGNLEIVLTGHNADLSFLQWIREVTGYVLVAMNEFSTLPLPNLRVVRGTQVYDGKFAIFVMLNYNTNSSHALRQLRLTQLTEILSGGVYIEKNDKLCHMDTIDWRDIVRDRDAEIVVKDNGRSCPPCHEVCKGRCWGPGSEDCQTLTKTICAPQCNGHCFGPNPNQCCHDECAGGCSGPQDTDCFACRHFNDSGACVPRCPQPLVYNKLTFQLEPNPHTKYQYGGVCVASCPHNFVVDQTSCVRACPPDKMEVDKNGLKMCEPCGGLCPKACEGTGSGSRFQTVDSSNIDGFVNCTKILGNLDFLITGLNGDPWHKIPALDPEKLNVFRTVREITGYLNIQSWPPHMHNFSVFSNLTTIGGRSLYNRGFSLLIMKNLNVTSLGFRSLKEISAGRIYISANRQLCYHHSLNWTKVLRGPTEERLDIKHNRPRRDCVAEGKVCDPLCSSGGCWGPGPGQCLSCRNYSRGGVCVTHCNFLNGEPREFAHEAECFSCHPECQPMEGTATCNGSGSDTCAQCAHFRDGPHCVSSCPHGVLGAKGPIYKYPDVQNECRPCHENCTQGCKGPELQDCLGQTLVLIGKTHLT

[6] = target: T3, Human HER3 ECD domain III (human, UniProt P21860 330-495); experiment: affinity summary table, method not given
T3 construct: also called D3; Domain 3
T3 sequence (P21860 330-495): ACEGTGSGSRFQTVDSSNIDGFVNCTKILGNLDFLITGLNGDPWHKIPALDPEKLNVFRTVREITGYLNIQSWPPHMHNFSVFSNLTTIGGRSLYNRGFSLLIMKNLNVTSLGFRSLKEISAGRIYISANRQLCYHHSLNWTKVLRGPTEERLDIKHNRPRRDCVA

Human HER3 ECD domain II [7] = target: T4, Human HER3 ECD domain II (human, UniProt P21860 184-329); experiment: DELFIA, plate coated with HER3 Domain II 1ug/ml
T4 construct: also called D2; Domain 2
T4 sequence (P21860 184-329): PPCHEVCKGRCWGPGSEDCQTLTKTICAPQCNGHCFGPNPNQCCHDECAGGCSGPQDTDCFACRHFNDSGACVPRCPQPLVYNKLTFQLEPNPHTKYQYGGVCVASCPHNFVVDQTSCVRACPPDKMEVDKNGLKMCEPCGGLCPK
Method: (§1) Dissociation Enhanced Lanthanide Fluorescence Immunoassay (DELFIA) for detection of the anti-HER3 antibodies to HER3 extracellular domain (ECD) was used. The DELFIA procedures were as follows: white Maxisorp 96-well plates (Nunc #437796) were coated with 100 ul/well of 1 ug/ml HER-3 ECD full length or HER3Domain I, II, III and IV in 0.1M carbonate buffer pH 9.5 overnight at 4° C. These plates were blocked with casein in TBS (Thermo Scientific #37532 lot#JD121074). The neat hybridoma supernatant, or the purified anti-HER3 antibodies diluted in Perkin Elmer #4002-0010 Assay Buffer from 10 ug/ml (or 100 ug/ml) to 0.01 ug/ml, or the PK serum samples with a minimum of 3 dilutions (100 ul/well) were added to the plate. These samples were incubated for 2 hours at room temperature while on a plate shaker or overnight at 4° C. […] The plate was washed 4 times with tris-buffer plus 0.05% tween-20 (Perkin Elmer #4010-0010) on a BIOTEK™ plate washer following each antibody incubation step. 100 ul/well of DELFIA enhancement solution (Perkin Elmer 1244-105) was added for 5 minutes at room temperature. […] Antibody binding was recorded as europium counts per well.

[8] = target: T2, Full-length human HER3 extracellular …; experiment: BIACORE 2000 SPR, mAb captured, HER3 protein as analyte, 25 C
Method: (§2) Mouse monoclonal antibodies were analysed using rabbit anti-mouse (RAM) IgG (GE Healthcare BR-1008-38) covalently coupled to a BIACORE™ CM5 chip (GE HEalthcare BR-1000-14) by primary amine chemistry (NHS/EDC activated) (GE Healthcare amine coupling kit BR-1000-50). Chimeric and humanized competitor monoclonal antibodies were analyzed using anti-human, Fc specific monoclonal (GE Healthcare BR-1008-39) similarly coupled. Each chip was also prepared with a reference surface to which no capture reagent antibody is coupled. Sensorgrams for cycles run with differing analyte concentrations are acquired for kinetic analysis. A cycle consists of capturing the monoclonal on the surface, a short stabilization period with flowing run buffer followed by binding of a defined concentration of analyte (ECD or sub-domain protein). Injection of analyte for surface binding (3-4 minutes) yields the association part of curve. This is followed by buffer only flow (3-4 minutes) which allows recording of dissociation data.
(§3) The general method for affinity analysis is as follows. First, chips were prepared and tested for reasonance units (RU) captured for several monoclonal antibody concentrations. Kinetic cycles were then run in which monoclonal antibody was captured to a level of approximately 100RU, analyte protein was allowed to bind then dissociate and the surface was regenerated to remove all but covalently coupled protein. RAM chips were regenerated with capture kit supplied 100 mM glycine pH1.7 and anti-human chips with capture kit supplied 3M MgCl₂. […] Several buffer cycles were run prior to analyte protein to ensure cycle consistency and in some experiments a buffer cycle is used a “double reference[.]” Analytes used were human full length HER3 extra cellular domain (ECD), separate sub-domains of the extracellular portion of human HER3 (D1, D2, D3, D4), or combination HER3 domain proteins (D1-2 and D2-3).

[9] = target: T3, Human HER3 ECD domain III; experiment: as above
Method: as §2, §3

[10] = target: T5, Human HER3 ECD domain 2-3 protein (human, UniProt P21860 184-495); experiment: as above
T5 construct: also called D2-3; sub-domains 2-3
T5 sequence (P21860 184-495): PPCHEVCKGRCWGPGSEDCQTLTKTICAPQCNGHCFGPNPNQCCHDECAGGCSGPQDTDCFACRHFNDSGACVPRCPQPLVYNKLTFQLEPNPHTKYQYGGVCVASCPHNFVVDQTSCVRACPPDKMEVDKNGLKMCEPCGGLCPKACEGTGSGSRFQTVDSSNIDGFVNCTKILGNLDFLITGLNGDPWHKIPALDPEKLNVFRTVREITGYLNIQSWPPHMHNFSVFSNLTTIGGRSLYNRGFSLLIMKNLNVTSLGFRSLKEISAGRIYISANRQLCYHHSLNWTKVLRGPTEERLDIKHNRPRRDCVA
Method: as §2, §3

[11] = target: T6, Murine HER3 on B16 and B16F10 melanoma cells (murine, UniProt Q61526 20-1339); experiment: flow cytometry on B16F10 murine melanoma cells, antibody labelled with a Zenon APC kit [a]
T6 construct: whole, on cells
T6 sequence (Q61526 20-1339, one chain of several): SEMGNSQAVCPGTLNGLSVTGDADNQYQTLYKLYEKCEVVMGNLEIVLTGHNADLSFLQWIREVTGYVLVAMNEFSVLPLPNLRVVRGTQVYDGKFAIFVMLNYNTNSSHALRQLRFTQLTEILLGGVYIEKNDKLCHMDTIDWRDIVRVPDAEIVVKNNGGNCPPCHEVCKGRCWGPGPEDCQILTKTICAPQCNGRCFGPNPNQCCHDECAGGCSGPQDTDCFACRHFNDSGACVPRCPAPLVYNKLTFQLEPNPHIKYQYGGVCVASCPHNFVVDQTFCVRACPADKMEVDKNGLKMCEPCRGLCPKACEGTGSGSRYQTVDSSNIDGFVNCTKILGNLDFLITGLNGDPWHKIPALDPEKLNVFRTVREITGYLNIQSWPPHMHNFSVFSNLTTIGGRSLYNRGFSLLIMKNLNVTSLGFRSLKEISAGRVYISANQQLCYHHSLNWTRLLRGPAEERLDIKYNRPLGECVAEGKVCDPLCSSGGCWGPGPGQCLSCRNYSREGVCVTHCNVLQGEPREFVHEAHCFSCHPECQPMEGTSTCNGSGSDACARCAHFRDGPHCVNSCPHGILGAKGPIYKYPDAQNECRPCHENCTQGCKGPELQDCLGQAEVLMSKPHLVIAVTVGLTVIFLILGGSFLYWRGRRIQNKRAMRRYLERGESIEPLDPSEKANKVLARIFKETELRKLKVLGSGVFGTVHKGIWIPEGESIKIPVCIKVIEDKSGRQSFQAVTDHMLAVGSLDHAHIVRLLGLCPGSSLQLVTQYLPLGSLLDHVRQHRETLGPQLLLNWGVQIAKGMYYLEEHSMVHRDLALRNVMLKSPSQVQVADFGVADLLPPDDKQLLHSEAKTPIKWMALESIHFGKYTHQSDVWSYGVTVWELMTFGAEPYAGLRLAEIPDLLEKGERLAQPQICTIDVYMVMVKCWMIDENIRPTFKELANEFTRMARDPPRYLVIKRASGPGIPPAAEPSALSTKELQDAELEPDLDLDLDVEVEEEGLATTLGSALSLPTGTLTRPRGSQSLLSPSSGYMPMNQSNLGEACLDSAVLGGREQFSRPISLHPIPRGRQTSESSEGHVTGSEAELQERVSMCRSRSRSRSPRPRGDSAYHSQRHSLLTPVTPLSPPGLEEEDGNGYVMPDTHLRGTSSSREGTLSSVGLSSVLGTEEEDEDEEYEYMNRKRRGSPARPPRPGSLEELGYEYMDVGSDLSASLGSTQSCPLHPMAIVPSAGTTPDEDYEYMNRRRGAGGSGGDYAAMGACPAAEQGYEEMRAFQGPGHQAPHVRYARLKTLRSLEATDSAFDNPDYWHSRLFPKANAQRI
Excerpt: B16F10 ZENON™ labeling kits: [0530] Mouse IgG1 PE—Invitrogen Z25021 [0531] Mouse IgG1 APC—Invitrogen Z25051 [0532] Mouse IgG2b APC—Invitrogen Z25151 Method: Commercially available anti-human EGFR and HER2 antibodies were provided. A commercially available HER3 antibody represented by the provider to recognizes human HER3 was provided. The murine 15D5 antibody, murine 1D9 antibody (M5.1D9.1F5), murine 24H5 antibody (M5.24H5.C2) antibodies were also provided. These antibodies were labeled with either PE or APC using the ZENON™ labeling kits (Invitrogen). 5×10⁶ B 16, or B16F10, murine melanoma cells were added to flow cytometry tubes containing the labeled anti-HER3 antibodies. Cells and antibodies were incubated for 30 minutes on ice in the dark, washed and resuspended in FACS buffer. Cells were then analyzed on a FACSCANTO™ flow cytometer. Data analysis was performed using […]™ software, developed by BD Biosciences. Cell populations were gated using forward vs. side scatter and histograms of fluorescent intensities were generated.

[12] = target: T2, Full-length human HER3 extracellular …; experiment: BIACORE SPR, mAb captured on protein A, ECD as analyte, 25 C
Method: (§4) Protein A was immobilised on a CM5 chip by primary amine coupling to a level of ˜1300 resonance units (RU′s), humanized antibodies were then captured on this chip, All antibodies were captured to a similar level (100-200 RU's). […] Alternatively, the full-length, rat HER3 ECD or the full-length cynomolgus monkey ECD were passed over the chip at 10 nM, 5 nM, 2.5 nM, 1:25nM, 0.625 nM and 0.3125nM. An injection of buffer alone was used to double reference the binding curves as indicated in Example 1. Regeneration of this surface was achieved using 10 mM Glycine buffer pH 1.5. The binding data was fitted to the 1:1 model using BIACORE™ Evaluation software. Runs were carried out at 25° C. on a BIACORE™ T3000 using HBS-EP as running buffer.

[13] = target: T7, Full-length rat HER3 extracellular domain (ECD) (rat, UniProt Q62799 20-643); experiment: as above
T7 construct: extracellular domain; also called Rat HER3 ECD
T7 sequence (Q62799 20-643): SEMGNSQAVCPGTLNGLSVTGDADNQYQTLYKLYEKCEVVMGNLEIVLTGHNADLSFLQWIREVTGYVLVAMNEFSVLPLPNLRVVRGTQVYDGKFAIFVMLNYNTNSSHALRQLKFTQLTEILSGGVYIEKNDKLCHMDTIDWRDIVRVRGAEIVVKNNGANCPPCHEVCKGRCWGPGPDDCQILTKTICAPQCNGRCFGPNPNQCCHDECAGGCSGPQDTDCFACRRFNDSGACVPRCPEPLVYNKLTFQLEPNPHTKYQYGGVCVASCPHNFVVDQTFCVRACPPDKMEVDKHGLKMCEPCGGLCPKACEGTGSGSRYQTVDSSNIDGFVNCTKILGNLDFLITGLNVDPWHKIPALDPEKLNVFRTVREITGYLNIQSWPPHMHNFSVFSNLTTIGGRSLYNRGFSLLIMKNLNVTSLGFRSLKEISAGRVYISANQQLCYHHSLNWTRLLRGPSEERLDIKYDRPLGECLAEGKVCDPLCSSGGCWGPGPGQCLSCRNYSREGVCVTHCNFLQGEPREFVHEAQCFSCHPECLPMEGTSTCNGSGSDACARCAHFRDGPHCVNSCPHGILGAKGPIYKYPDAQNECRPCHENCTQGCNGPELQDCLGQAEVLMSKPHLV
Method: as §4

[14] = target: T2, Full-length human HER3 extracellular …; experiment: DELFIA (europium time-resolved fluorescence), plate coated with HER3 ECD Full Length 1ug/ml, antibody titrated 0.001-10 ug/ml
Method: as §1

Human HER3 ECD domain II [15] = target: T4, Human HER3 ECD domain II; experiment: DELFIA, plate coated with HER3 Domain II 1ug/ml; remark: listed apart in the source
[16] = target: T2, Full-length human HER3 extracellular …; experiment: DELFIA (europium time-resolved fluorescence), plate coated with HER3 ECD Full Length 1ug/ml, antibody titrated 0.001-10 ug/ml; remark: listed apart in the source

Row | Binder | Phospho-HER3 ELISA IC50, heregulin induced, BxPC3 cells (Human HER3 receptor [1]) | Phospho-HER3 ELISA IC50, heregulin induced, CHL-1 cells (Human HER3 receptor [1]) | Phospho-HER3 ELISA IC50, heregulin induced, N87 cells (Human HER3 receptor [1]) | Phospho-HER3 ELISA IC50, heregulin induced, SK-BR-3 cells (Human HER3 receptor [1]) | Phospho-AKT ELISA IC50, heregulin induced, BxPC3 cells (Human HER3 receptor [2]) | binding result (Human HER3 ECD domain II [7]) | Kd [12] | koff [12] | kon [12] | other results
1 | B1 | 0.0068 µg/mL | 0.0406 µg/mL | 0.0204 µg/mL | 0.0032 µg/mL | 0.0151 µg/mL | no binding (tested: 10 ug/ml) | – | – | – | Phospho-HER3 ELISA IC50, heregulin induced, BT-474 cells (Human HER3 receptor [1]): 0.0223 µg/mL; Phospho-HER3 ELISA IC50, heregulin induced, MCF7 cells (Human HER3 receptor [1]): 0.0104 µg/mL; Phospho-HER3 ELISA IC50, betacellulin induced, SK-BR-3 cells (Human HER3 receptor [3]): 0.0036 µg/mL; Phospho-HER3 ELISA IC50, epidermal growth factor induced, SK-BR-3 cells (Human HER3 receptor [3]): 0.003 µg/mL; Phospho-HER3 ELISA IC50, heregulin induced, SK-BR-3 cells (Human HER3 receptor [3]): 0.0032 µg/mL; Phospho-HER3 … IC50, heregulin induced, CHO EGFR + HER3 (Human HER3 receptor [4]): 0.0435 µg/mL; Phospho-HER3 … IC50, heregulin induced, CHO HER4 + HER3 (Human HER3 receptor [4]): 0.13 µg/mL; Kd [5]: ~1000 pM; Kd [6]: 390 pM; Kd [8]: 820 pM; kon [8]: 355000 M⁻¹ s⁻¹; Kd [9]: 380 pM; kon [9]: 2.54e+06 M⁻¹ s⁻¹; Kd [10]: 470 pM; kon [10]: 893000 M⁻¹ s⁻¹; binding result [11]: binds
2 | B2 | 0.0056 µg/mL | 0.0282 µg/mL | 0.0175 µg/mL | 0.0034 µg/mL | 0.0228 µg/mL | no binding (tested: 10 ug/ml) | 2010 pM | 0.00223 s⁻¹ | 1.11e+06 M⁻¹ s⁻¹ | Kd [13]: 3370 pM; koff [13]: 0.0011 s⁻¹; kon [13]: 326000 M⁻¹ s⁻¹; EC50 (read off the curve) [14]: ~0.03 µg/mL
3 | B3 | 0.0116 µg/mL | 0.0365 µg/mL | 0.0218 µg/mL | 0.0036 µg/mL | 0.0244 µg/mL | – | 4500 pM | 0.00184 s⁻¹ | 410000 M⁻¹ s⁻¹ | binding result (Human HER3 ECD domain II [15]): no binding (tested: 10 ug/ml); EC50 (read off the curve) [16]: ~0.04 µg/mL
